Data on three molecules can be found in US20050282743A1, “Molecular interactions in cells” (Arbor Vita Corporation, priority 2001, published 2005).

What all share (experiment): G' assay
The target in test [1] is T1, GST-MINT1 PDZ domain 2 (Mus musculus (Mouse)), B2RUJ5.
T1 chain: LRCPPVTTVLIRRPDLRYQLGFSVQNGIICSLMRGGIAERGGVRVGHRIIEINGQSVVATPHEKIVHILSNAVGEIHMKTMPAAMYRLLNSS

Test [2] deals with GST-BAI-1 Associated Protein PDZ domain 2 (Mus musculus (Mouse)), Q6RHR9.
Test [3] addresses T2, GST-KIAA1719 PDZ domain 3 (Homo sapiens (Human)), Q9C0E4.
T2 chain: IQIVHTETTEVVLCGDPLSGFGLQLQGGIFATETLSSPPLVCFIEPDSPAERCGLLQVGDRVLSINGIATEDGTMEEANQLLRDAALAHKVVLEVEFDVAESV

The target in test [4] is T3, GST-DVL2 PDZ domain 1 (Homo sapiens (Human)), O14641.
T3 chain: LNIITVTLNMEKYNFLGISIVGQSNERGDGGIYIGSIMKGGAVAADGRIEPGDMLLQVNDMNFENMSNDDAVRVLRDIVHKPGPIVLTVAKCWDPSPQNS

Test [5] concerns the target T4, GST-APXL-1 PDZ domain 1 (Homo sapiens (Human)), Q13796.
T4 chain: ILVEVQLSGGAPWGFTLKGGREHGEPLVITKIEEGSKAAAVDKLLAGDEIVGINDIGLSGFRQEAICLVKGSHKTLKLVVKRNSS

Test [6] concerns the target T5, GST-FLJ 10324 PDZ domain 1 [GST: P08515].
T5 chain: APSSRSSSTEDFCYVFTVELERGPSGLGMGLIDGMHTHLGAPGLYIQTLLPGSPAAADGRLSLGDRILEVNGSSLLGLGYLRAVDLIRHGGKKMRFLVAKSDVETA

In test [7] the target is T6, GST-KIAA0807(S) PDZ domain 1 (Homo sapiens (Human)), Q6P0Q8.
T6 chain: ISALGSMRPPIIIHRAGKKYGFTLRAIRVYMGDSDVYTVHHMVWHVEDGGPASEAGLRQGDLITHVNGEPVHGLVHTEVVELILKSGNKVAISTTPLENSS

The target in test [8] is T7, GST-Shank 1 PDZ domain 1 (Homo sapiens (Human)), Q9UPX8.
T7 chain: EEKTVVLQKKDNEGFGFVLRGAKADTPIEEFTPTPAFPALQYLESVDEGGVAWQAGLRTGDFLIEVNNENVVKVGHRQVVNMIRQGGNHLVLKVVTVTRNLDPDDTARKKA

The target in test [9] is T8, GST-KIAA0973 PDZ domain 1 (Homo sapiens (Human)), Q9Y2H9.
T8 chain: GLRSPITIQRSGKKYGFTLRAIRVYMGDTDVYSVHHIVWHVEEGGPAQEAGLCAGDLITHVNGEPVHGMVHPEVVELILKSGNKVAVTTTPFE

For test [10], the target named is T9, GST-MINT1 PDZ domains 1, 2, Q02410.
T9 chain: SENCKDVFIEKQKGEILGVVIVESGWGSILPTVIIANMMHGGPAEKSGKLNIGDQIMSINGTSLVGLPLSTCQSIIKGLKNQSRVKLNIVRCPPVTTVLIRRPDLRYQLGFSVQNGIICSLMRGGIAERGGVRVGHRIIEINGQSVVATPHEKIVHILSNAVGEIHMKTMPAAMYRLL

The target of test [11] is T10, GST-GRIP 1 PDZ domain 6 (Mus musculus (Mouse)), Q925T6.
T10 chain: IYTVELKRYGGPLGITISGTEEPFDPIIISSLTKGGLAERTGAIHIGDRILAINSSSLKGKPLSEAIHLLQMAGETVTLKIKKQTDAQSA

The target of test [12] is GST-KIAA1634 PDZ domain 1 (Homo sapiens (Human)), Q5TCQ9.
Chain of GST-KIAA1634 PDZ domain 1 (Homo sapiens (Human)), Q5TCQ9 (Q5TCQ9 401-502): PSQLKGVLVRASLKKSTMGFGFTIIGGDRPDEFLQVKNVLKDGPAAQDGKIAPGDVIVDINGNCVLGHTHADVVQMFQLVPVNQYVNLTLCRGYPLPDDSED
Test [13] concerns the target T11, GST-X-11 beta PDZ domain 2 (Rattus norvegicus (Rat)), O35431.
T11 chain: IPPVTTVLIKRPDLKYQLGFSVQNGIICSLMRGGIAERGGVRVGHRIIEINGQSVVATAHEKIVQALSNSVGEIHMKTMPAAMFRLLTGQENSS

The target of test [14] is T12, GST-KIAA1719 PDZ domain 6 (Homo sapiens (Human)), Q9C0E4.
T12 chain: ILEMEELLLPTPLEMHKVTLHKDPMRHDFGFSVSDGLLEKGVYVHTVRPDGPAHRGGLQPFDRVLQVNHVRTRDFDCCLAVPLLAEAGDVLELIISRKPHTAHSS

For test [15], the target named is GST-KIAA807 [GST: P08515].
Chain of GST-KIAA807 [GST: P08515] (P08515 whole entry, the tested form may be a part): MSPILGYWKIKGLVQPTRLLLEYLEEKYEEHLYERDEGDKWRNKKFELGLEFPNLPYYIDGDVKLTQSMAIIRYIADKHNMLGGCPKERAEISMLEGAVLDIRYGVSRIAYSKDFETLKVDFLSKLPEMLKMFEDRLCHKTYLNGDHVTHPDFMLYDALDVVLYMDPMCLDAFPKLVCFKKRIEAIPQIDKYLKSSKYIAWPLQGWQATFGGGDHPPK
Test [16] has as its target T13, GST-SYNTENIN PDZ domain 1 (Homo sapiens (Human)), O00560.
T13 chain: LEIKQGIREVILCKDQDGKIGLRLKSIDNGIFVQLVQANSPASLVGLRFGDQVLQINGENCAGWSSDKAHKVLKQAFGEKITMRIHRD

Test [17] has as its target T14, GST-MUPP1 PDZ domain 7 (Homo sapiens (Human)), O75970.
T14 chain: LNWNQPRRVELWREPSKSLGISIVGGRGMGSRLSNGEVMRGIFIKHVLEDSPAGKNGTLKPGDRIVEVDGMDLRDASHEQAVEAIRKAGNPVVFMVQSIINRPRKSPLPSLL

The target in test [18] is GST-KIAA1222 PDZ domain 1 (Rattus norvegicus (Rat)), O35867.
Chain of GST-KIAA1222 PDZ domain 1 (Rattus norvegicus (Rat)), O35867 (O35867 499-598, tags or fused parts left off): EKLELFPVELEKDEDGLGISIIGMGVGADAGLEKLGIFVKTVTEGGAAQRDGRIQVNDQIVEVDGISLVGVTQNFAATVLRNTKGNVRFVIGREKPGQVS
For test [19], the target named is T15, GST-HEMBA 1003117 PDZ domain 1 (Homo sapiens (Human)), Q96JH8.
T15 chain: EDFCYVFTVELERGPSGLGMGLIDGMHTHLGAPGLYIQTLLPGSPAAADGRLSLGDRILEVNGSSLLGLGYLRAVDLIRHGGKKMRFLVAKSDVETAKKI

Test [20] addresses T16, GST-PTPL1 PDZ domain 4 (Homo sapiens (Human)), Q12923.
T16 chain: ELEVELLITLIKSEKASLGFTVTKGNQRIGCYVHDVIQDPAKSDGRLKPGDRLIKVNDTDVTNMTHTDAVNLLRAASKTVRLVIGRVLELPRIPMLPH

In test [21] the target is T17, GST-AIPC PDZ domain 1 (Homo sapiens (Human)), O15018.
T17 chain: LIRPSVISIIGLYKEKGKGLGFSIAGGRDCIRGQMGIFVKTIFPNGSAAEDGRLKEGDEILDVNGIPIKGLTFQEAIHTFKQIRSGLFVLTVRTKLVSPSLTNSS

Test [22] deals with T18, GST-ZO-3 PDZ domain 3 (Homo sapiens (Human)), O95049.
T18 chain: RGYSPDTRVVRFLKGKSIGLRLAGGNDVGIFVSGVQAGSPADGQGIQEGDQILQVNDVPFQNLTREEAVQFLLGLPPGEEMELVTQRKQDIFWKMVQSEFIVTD

Test [23] addresses T19, GST-MINT1 PDZ domain 1 (Mus musculus (Mouse)), B2RUJ5.
T19 chain: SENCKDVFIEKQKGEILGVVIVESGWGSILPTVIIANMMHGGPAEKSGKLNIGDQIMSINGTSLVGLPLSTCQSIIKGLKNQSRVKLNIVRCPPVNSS

Test [24] has as its target T20, GST-MUPP1 PDZ domain 2 (Homo sapiens (Human)), O75970.
T20 chain: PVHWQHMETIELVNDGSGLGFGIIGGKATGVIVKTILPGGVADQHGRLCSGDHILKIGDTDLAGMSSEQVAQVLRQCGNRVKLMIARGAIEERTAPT

The target in test [25] is GST-PAR3 PDZ domain 3 (Homo sapiens (Human)), Q8TEW0.
Chain of GST-PAR3 PDZ domain 3 (Homo sapiens (Human)), Q8TEW0 (Q8TEW0 579-681): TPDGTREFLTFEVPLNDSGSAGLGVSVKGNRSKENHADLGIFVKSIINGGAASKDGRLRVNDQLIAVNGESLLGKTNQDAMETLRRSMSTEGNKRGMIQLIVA
For test [26], the target named is T21, GST-KIAA0382 PDZ domain 1 (Canis lupus familiaris (Dog) (Canis familiaris)), A0A8I3.
T21 chain: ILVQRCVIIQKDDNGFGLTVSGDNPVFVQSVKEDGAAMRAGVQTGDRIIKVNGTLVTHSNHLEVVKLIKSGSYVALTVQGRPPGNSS

The target of test [27] is T22, GST-MUPP1 PDZ domain 3 (Homo sapiens (Human)), O75970.
T22 chain: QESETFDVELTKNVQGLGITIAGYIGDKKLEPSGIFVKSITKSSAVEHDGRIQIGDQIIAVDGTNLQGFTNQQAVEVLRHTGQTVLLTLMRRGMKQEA

The target in test [28] is T23, GST-MUPP1 PDZ domain 9 (Homo sapiens (Human)), O75970.
T23 chain: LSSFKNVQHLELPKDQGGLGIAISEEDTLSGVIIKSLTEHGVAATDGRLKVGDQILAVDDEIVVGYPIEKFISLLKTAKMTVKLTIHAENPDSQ

Test [29] concerns the target T24, GST-MUPP1 PDZ domain 11 (Homo sapiens (Human)), O75970.
T24 chain: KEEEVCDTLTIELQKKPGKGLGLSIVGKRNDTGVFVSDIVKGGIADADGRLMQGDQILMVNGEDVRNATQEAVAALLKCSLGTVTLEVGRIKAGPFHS

Test [30] has as its target T25, GST-AF6 PDZ domain 1 (Homo sapiens (Human)), P55196.
T25 chain: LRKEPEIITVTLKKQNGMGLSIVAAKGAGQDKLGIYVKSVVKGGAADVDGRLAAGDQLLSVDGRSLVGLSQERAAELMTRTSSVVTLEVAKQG

Test [31] addresses T26, GST-ENIGMA PDZ domain 1 (Homo sapiens (Human)), Q9NR12.
T26 chain: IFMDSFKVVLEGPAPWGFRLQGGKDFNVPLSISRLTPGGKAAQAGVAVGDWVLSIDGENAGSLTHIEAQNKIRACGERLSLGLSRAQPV

Test [32] deals with T27, GST-LIM Protein PDZ domain 1 (Homo sapiens (Human)), Q96HC4.
T27 chain: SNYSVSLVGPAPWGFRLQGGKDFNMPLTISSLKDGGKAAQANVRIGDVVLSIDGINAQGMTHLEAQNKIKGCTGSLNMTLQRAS

The target in test [33] is T28, GST-LIM-RIL PDZ domain 1 (Homo sapiens (Human)), P50479.
T28 chain: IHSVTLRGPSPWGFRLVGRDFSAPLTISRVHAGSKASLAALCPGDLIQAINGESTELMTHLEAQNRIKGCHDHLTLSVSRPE
Also: key of the grades not given here.

Chain of GST-BAI-1 Associated Protein PDZ domain 2 (Mus musculus (Mouse)), Q6RHR9 (Q6RHR9 455-558): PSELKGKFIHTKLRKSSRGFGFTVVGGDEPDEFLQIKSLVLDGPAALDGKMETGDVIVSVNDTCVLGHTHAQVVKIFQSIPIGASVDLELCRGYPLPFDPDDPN

For the molecule ALVLIAFCIIRRRPSAYQAL (modifications not checked) [CD68], the Classification amounted to 2 A450 class in [1]; 3 A450 class in test [2]; 1 A450 class in [3]; 2 A450 class in test [4]; 2 A450 class in [5]; 1 A450 class in test [6]. Also, the Classification came to 5 A450 class in test [7]; 1 A450 class in test [8]; 1 A450 class in test [9]; 1 A450 class in [10]; 1 A450 class in test [11]; 2 A450 class in test [12]. Also, the Classification in test [13] and in test [14] was 1 A450 class each time.

As for KTMPAAMFRLLTGQETPLYI (modifications not checked) [MINT-2], the Classification in test [15] came to 3 A450 class; in test [1], 1 A450 class; in test [16] it was 2 A450 class; in test [17], 1 A450 class; in test [18] it was 1 A450 class; in [19], 3 A450 class. Besides, the Classification is 4 A450 class in test [20]; 2 A450 class in [4]; 1 A450 class in [21]; 4 A450 class in test [6]; 4 A450 class in [7]; 1 A450 class in [22]. The Classification in [10] is 5 A450 class; in [23], 2 A450 class; in test [24] it was 1 A450 class; in test [25], 5 A450 class; in test [26] it was 1 A450 class; in [27], 1 A450 class. In addition, the Classification was 1 A450 class in test [28] and 5 A450 class in [29].

As to YSATYSELEDPGEMSPPIDL (modifications not checked) [FceRlb], the Classification came out at 2 A450 class in test [30]; 1 A450 class in test [5]; 2 A450 class in test [31]; 2 A450 class in test [32]; 1 A450 class in test [33].
